Measurements from the supplement of paper PMC12636428.

Tested on: Saccharomyces cerevisiae
Assay: transcriptional activation domain activity (GFP:mCherry ratio, weighted mean of sorted bins, harmonized to initial dataset scale) (arbitrary fluorescence ratio units); higher = stronger transcriptional activation
Settings: beta-estradiol 1 µM; induction time 4 h
Outline: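 Values are activation activity, found as the read-weighted mean of bin median fluorescence, averaged across barcodes and then mapped linearly onto the initial dataset scale. Barcoded protein tiles fused to an estradiol-inducible synthetic transcription factor were integrated at the URA3 locus of GFP-reporter yeast diploids. Cells were induced for 4 hours at 30 °C with 1 uM beta-estradiol in SC, sorted into 8 bins by GFP:mCherry ratio, and barcode-sequenced, with tiles under 50 reads discarded.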

| Sequence | transcriptional activation domain activity |
| --- | --- |
| MMKKKNWSYVVFWRGLPFFFFFFFFFFGEHFVLIFTSFVLFLLSLLCAGCVWV | 25000 |
| MMKTLAQMYPLASFSLFQGLKFFILLALMNECLLLCTALRRWLICTQLPGIYF | 49200 |
| MMKVVGFLYQIYLIIYCVGWWFLLLVLFVFSFSFFFFLFFFFLFFSSTFYSLS | 43100 |
| MMLLLMLMILMMILTMMMLLLLHKQENEGCVLFLFLLWWLWLWFWLWCCWKSS | 35300 |
| MMLLSVRLCIVFFSFMAACFGIPYTPSILFASLFASALGLHILRIFFLVIVHF | 51300 |
| MMLPLVQGWGSTDGFFIFIFIFFIFAFLFNLSIYRSFFFLPFLFFYMEVLLRL | 73300 |
| MMLVGVVAFNVLKVIPVSDPRCIGVLLVGYVFQGLGFFMTFFYLAIYILRIMT | 43600 |
| MMLVQSIPVSRDVILGVLLRLLAPTVFLSSVVLALLLVSTLCKIPKQGRLRAW | 64600 |
| MMLVSSRSFLYWYGVSLTLLLLSLEFVWSFLLFFTWLVTLSLFPFLSSVSHCH | 60200 |
| MMLWWRWRWILLLMLMLMLRWRWWWHTSLWWRWSKCLLTRLLLLLLLWWWDSF | 55000 |
| MMMGTIVKSFFLFTFTFSIFFFYFFPRVLFTPFFFTYWTSAFFLLLFLFFFLF | 64900 |
| MMMGTIVKSFFLFTFTFSIFFFYFFPRVLFTPFFFYILDLSLFFIVVLIFFSF | 54300 |
| MMNKTPGFLSLIPPFVIDLILLRCCLDPNISLNVTYRTLYFLMWFFQSVYLAV | 53200 |
| MMNNNESEAENQRLLDELMNQTKVLQETLDFSLVTPTPHHNDDYKIHGSAYPG | 47300 |
| MMPRGSYLAFFLLLLFYSFLSLFTPLNFVFLFFLSPLLRLHTLFYLLYFFGLA | 42100 |
| MMRCRFGVVFRILPYYLFVFPQIFIYLLLDSFDVQSSLPLLLLYTSLIILVTW | 56900 |
| MMRKLAYFYALPEVQNSKVLQTIVKKGFVPLLIALIFPRVTEDQLRVVIRFCQ | 50000 |
| MMRRWNELGLDGWVQNQHGLDSFAFLQLAFRLPICCIFPSKILVVFPLLLLSA | 52900 |
| MMRSAANMGLISQPSNLLLVVQPCPPLLLCVLFPPPLSSYCLLLSLSLLLFFF | 38500 |
| MMSDSGQDEKTLPQADKNGTSQVAVPLEATEASEQALLRRLLRKTDLLVMPGL | 24200 |
| MMSGGMAYQVLFLYLLGYRLFYPRYFLFHSMFLFFIYCYMRCCPFRFTTILID | 58000 |
| MMSMFWGWHGQRNGVFSGVLGFGILLVTWFFFFFKFSPHILLIISVYGHFGFF | 81500 |
| MMYDSLSSLFVSTLFFSLYEFLCLSCPLCFNYPFQVGFCTLFLFFHPLFAFMQ | 34500 |
| MNAFRPLHFLFYFIFLLLSMKALRFFIFSIFFFIFLHLHLCIHIYIALLFSYP | 30600 |
| MNAQQLSGTRHKKEIKRRTKTGCLTCRKRRIKCDEGHPTCRNCQKSKRECLGY | 38600 |

| Sequence | transcriptional activation domain activity |
| --- | --- |
| MNAVQASGLVISLVLYVAVVFILLAGPLLFFLCYFFFLISITFPVHLPPMRVS | 63800 |
| MNCGIGFLNFHSQTSFKFLLFILFHFNFFAYLPLLTSCYSRLFSFSFSTIYFI | 61200 |
| MNCRIVWNRCCGGLVPRFLLFLWCFGTVGYYRYFFSMGLGILLLWYILVLTTV | 50600 |
| MNDCSAGCAGGQFPVGQDGLICIVEFNTITCVSTGSIVFLMLHSWLYFVLLIF | 71600 |
| MNDKVVSCETRRRRKAREGREKRGKGEERGEKREGRRERGEREREKRKERGRE | 25300 |
| MNFFFCMRSWTLLCYPKTGLLFFILCFFSSALSILSPPPCIFFFFFFLSRVCC | 45100 |
| MNFTDIYFSDIIYVLLLYLLILFTFFLDLLISFTFVTLYSILFLFVLYSFILN | 70500 |
| MNFWAWFFFFFYSLLILITSFLSFVFFFSLFLFWFLFLFLFPFLSLLIFPLPS | 41100 |
| MNGDRDSGRSRDHYSSRGDRDDRRDRDRDRRRRSRSPGHRSSRRDYEVDTYSS | 45700 |
| MNGGNGFGFWFGVWFWLGIYILSLFFFFFSFSFLLLCVFVSFHSLVFFFFFFS | 53300 |
| MNGLWCRDDILFYISFVLILFSSFSIFLLLLDRLRFLFSFLFFFFFWCFVFIV | 45800 |
| MNHTSRFFSPFFLFSLFLSFPSFLLPCFLLLFLFLPFLPPSLSLLSLILYKFW | 31900 |
| MNIDAPRPRPGGDRPIRRRRRPVVACNECRRRKIACDRKSPCCQCTLHRVNCV | 44600 |
| MNILNLEMWYYLLECLNLRFVLVFFLLSLFFSSRFTGGLVGVECFSFFVWITM | 86000 |
| MNITTVRALGLYILFHQYLIMIEDFICGFLIWYLRYFFYFTYLLCTVISYLSC | 78500 |
| MNKLFFKLRICVLIKIMLLQFVIIATIYNCNYFIIIVMYICLLLLLPFKLVYD | 52100 |
| MNLDTSPDFVHFFLGFTGGVSILDLYCLFMYTFFDMIQLQLNPFSDFFFPFSL | 62100 |
| MNLILRCIWRVTKTIPRLIQTKSIKPDILLYDIHKFFVTVPPREWKRRATEFP | 55900 |
| MNLLFITFFLLVMWVVWFICVVVPFFLLLLLCFFSFLFFRLFGAGWLGWVGNF | 42500 |
| MNLSRVFLKVRAIAFSCISLLSFLWIILLCLMLYYRWDESDHSEHSLLIILLL | 45100 |
| MNLSRYAVVLATQWGILIMLAMNQLCIPSFLTMFAYIPTKVLQFFHYFIVSLF | 47700 |
| MNLTLFYYTFLLSFFLIYCVVLNLYLRFFPANFVNMPLFISLTFLKCAWIPLL | 56200 |
| MNLVSLAAVCLFYFFSPTLFFVPSLCSHGHLFTYGHFLLLLCSLILPWTCFRL | 72000 |
| MNLYLLCRYMTLVYCFVYMLGNNITKFDCEVWVKALLSFGYIASILSSSLIVL | 61200 |
| MNPHFLLPSIVSFQFSCFFGCLVVYLSVFFSRFIFILTFPSIYFSSTVFFFVS | 37100 |

| Sequence | transcriptional activation domain activity |
| --- | --- |
| MNPPDNIIILPFHPLPFFWLLIFIPFSLSLPSSFFFNSNLSFLFFFFVFCFMI | 68600 |
| MNPPIHSLSFLQSYICFMLIPPLPLMFIIVFHPLYFFWLFLSFLLLDYYLSLL | 37800 |
| MNPTPAVFALFFPVIFCVYICYAWFLLFFVFWEPFFFLHIFLYRIILLSIWNL | 29900 |
| MNQHYGFLNCDLFFYFFFSSLFLIWPFLLFSFSFTVFPYLFTIMETYFGHIKT | 28700 |
| MNQSPDDTGGEDQTTAPSWRACDNCRARKIKCDKRSPCSNCRVSNAICRTAKK | 30600 |
| MNQTRHFFSPFFLFSLFLSFPSFLLSSFLLLFLPFYFSPSYLLLCLFSLIFYK | 52800 |
| MNQTSCFFPPFFLFSFFFFLFFFPFPHSSSLPSFFFSFPSISPLFTSFSVSSL | 35200 |
| MNQTSCFFSAFFLFALFLSFPSFLLPSFFLLFLLFYFFPSYLLLCLFSLIFYK | 57200 |
| MNQTSRFFLLFFFFFFFYFFPFSHLLPSFLLLFLSFYFSPSYLLLCLFSLIFY | 42600 |
| MNQTSRFFSPFFLFLFLLFLSFLSPPPFLPSSLPFLLFLPFLPLSLSLLSLIF | 15400 |
| MNQTSRFFSPFFSPFFSPFFSPFFLLFFLFSLFLSFPSFLLPCFLLLFLSFYF | 48800 |
| MNRFSIRFTFVISLIDILRGIIILLYTYIHNVGFQCSLISFLFHWLTLVYFFL | 55100 |
| MNRIKSARGRDDGSDGEVRILVVSGPRVREVEWSGVQPAWMAVEVVVVMECPR | 36800 |
| MNTNWNILPPVLFKWGPSLMVLSFNKPYFCSALPWYLYLCIFMCCLTHLYYFI | 70600 |
| MNVLTFFYVVGGVFFFFTISFALPGGYIVLDLSYYNHIICATYLLLLFEFMFY | 54200 |
| MNYLELSLVILTCLWDILLVVTFCSYRRIFRRVNMVNIMTISLLKHLSVFCLF | 52300 |
| MNYLFSCFKFFLFFFFFLLFSFSPHLFFIFSCLLYLACLCVCVWWKGPFSCIS | 72500 |
| MPAIFFGSQIGGETLQPLSYTGLPWKLLIQDILLFLRWCYYLPNIVIPLWPWP | 67400 |
| MPALQCALLLHQVNMAFLQWNCMLYTIYHFRIIHIIILLLHMCTRTIICLLNG | 37700 |
| MPASSSTAAASPGNSHNVVGVHYKVGKKIGEGSFGIIYEGKQKEERTNLLNNQ | 35300 |
| MPAVKKDAPSQRQQDKESKRARGALSCAECRRLKLKCDKTVPCSSCKRRGCSA | 34600 |
| MPAYLDKPLTFLAFDWCVTFFFFCCFFLLILFLSLLVINVIVLCLLPLISLVS | < 6570 |
| MPCLCHFWMTCLCHFRMPLFFYFQMPCLCHFWMTCLCHFLMPCLFYFWMPFLC | 43200 |
| MPDVIFKPPPADPCHYDMCLVLYYSVLFSHFIVGFFLRVLHLWCSLLHFYSRI | 63500 |
